Laboratory results published in patent publication US20100136710A1.

Target: 3′-end processing factors
Experiment: immunoprecipitation under standard salt conditions

Q: How did the percent of the 3′-end processing factors associated turn out when human tRNA splicing endonuclease was run?
A: < 1%
